Here are results for 4 substances from patent EP1812465B1.

The target of test [1] is PRO87299(ECD)-Fc (human). Briefly: Biacore; PRO87299(ECD)-Fc amine coupled (~9000 RU), HVEM injected at 2µg/ml, against the PR04346-Fc control flow cell. On the technique in general: In SPR one partner is held on a chip, and binding of the other changes the refractive index at the surface.
Test [2] deals with PRO87299/LIGHT expressed together on cells (human). Briefly: radioligand binding to cells expressing PRO87299 and LIGHT together, Scatchard analysis.
In test [3] the target is LIGHT expressed on cells. Briefly: radioligand binding to transfected cells, Scatchard analysis.
In test [4] the target is HVEM expressed on transfected 293 cells. The test is described as above.
Test [5] deals with HVEM-Fc. Briefly: Biacore; HVEM-Fc amine coupled (~7500 RU), 8nM PRO87299(ECD)-Fc, read 105 seconds after injection.
In test [6] the target is HVEM expressed on transfected 293 cells. Briefly: radioligand binding to transfected cells, displacement with unlabelled protein, Scatchard analysis.

Take “HVEM (protein of the SPDI protein library) (receptor)”: the response units over control (response units) in test [1] was found to be 1200.

What is called Kd is the free concentration of one partner at which half of the binding sites on the other are occupied at equilibrium, for simple one-to-one binding. A lower Kd goes with a tighter complex. On to HVEM-Fc (Fc fusion), for which the Kd turned out to be 0.5 nM in test [2] and 7 nM in test [3]. On to I-125-LIGHT-FLAG (ligand), for which the Kd in test [4] turned out to be 2.5 nM. PRO87299(ECD)-Fc (Fc fusion) had a response units in test [5] of 100 RU. Moreover, the Kd in test [6] was found to be 25 nM.
